# Measured values: article PMC5118228 (EJNMMI Research, 2016)
# Like-named read-outs stand apart in the source and are kept apart here.
# Test system: AR42J tumor-bearing mice
# Settings: male, athymic nu/nu, mouse, in vivo, iv, 0.3 nmol
compound,measurement,setting,value
"C[C@@H](O)[C@H](NC(=O)[C@@H]1CSSC[C@H](NC(=O)[C@@H](Cc2ccccc2)NC(=O)CN2CCN(CC(=O)O)CCN(CC(=O)O)CCN(CC(=O)O)CC2)C(=O)N[C@@H](Cc2ccc(O)cc2)C(=O)N[C@H](Cc2c[nH]c3ccccc23)C(=O)N[C@@H](CCCCN)C(=O)N[C@@H]([C@@H](C)O)C(=O)N1)C(=O)O [^111In-DOTATATE, metal not drawn]",Tumor uptake,10 min,6.3 ± 1.3 %IA/g
same,Renal activity,1 h,10.9 ± 0.6 %IA/g
same,Tumor uptake,1 h,6.0 ± 1.2 %IA/g
